Assay results: patent US20180264103A1 (ELITEIMMUNE, published 2018)

Columns and labels:
[1] = target: RSV-F (Strain A2) (respiratory syncytial virus (Strain A2)) (UniProt P03420); experiment: ELISA, antigen coated on plate, same conditions as R66
[2] = target: RSV-F (Strain RSS-2) (respiratory syncytial virus (Strain RSS-2)) (UniProt P11209); experiment: as above
[3] = target: T1, RSV-F (Strain RSS-2) (respiratory syncytial virus (Strain …, UniProt P11209 26-529)); experiment: ELISA, antigen coated on plate, anti-human IgG-HRP detection
T1 construct: Bought protein (Sino Biological Inc.), coated on the ELISA plate; also called glycoprotein F; antigen F of RSV
T1 sequence (P11209 26-529): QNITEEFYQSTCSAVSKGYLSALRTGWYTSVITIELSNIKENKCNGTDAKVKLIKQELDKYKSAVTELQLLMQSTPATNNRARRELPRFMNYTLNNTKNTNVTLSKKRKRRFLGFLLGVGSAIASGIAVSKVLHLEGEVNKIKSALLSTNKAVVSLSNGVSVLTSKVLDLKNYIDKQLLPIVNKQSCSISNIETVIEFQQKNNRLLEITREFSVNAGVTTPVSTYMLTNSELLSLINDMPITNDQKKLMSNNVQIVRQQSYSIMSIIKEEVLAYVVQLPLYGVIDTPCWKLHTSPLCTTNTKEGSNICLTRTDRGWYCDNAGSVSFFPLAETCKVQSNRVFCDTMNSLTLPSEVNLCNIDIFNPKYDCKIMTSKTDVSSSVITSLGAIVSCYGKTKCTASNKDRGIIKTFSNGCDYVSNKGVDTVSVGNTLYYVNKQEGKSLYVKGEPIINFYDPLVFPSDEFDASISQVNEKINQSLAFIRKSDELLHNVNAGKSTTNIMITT
Procedure: (§1) To prepare coating antigen solution, RSV-F (Strain A2) and RSV-F (Strain RSS-2) (purchased from Sino Biological Inc.) were diluted with PBS (1×) (pH 7.4) buffer to the final concentration of 2 ng/μl. 100 μl of the coating antigen solution was pipetted into each well of a 96-well plate, coated overnight at 2-8° C., and washed 5 times with PBST, then each well was added with 200 μl of blocking solution for blocking for 2 hours at 37° C., and washed 5 times with PBST for 1 minute each wash after completion of blocking.
(§2) Two parallel experiments were performed, and two blank wells were set up to replace the primary antibody with PBST, incubated for 90 minutes at 37° C. and then washed 5 times with PBST.
(§3) The secondary antibody was diluted 5,000 times with the antibody diluent (PBST+1% BSA). 100 μl of diluent was added to each well, incubated for 1 hour at 37° C., then washed 5 times with PBST, added with TMB substrate solution with 100 μl/well, incubated for 15 minutes at room temperature. After the completion of the incubation H₂SO₄ stop solution was added to terminate the reaction. The absorbance of OD₄₅₀ was read on the microplate reader.

[4] = target: T2, RSV-F (Strain A2) (respiratory syncytial virus (Strain A2), UniProt P03420 26-529); experiment: as above
T2 construct: Bought protein (Sino Biological Inc.), coated on the ELISA plate; also called glycoprotein F; antigen F of RSV
T2 sequence (P03420 26-529): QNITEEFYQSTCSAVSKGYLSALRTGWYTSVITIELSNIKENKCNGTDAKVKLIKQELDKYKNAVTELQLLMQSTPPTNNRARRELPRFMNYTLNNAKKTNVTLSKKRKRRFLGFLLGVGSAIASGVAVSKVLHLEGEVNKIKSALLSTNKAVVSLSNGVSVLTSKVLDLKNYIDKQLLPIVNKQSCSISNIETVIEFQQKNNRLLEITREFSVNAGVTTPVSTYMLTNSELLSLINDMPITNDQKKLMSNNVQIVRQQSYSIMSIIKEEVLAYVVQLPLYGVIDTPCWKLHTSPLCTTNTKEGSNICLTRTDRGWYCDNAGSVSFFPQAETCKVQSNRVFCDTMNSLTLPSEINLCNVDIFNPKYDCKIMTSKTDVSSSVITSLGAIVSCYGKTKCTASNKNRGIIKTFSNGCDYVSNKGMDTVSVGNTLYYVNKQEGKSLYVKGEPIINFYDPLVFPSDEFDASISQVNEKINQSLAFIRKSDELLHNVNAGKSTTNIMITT
Procedure: as §1, §2, §3

Chain of RSV-F (Strain RSS-2) (respiratory syncytial virus (Strain RSS-2)) (P11209 26-529): as the sequence (P11209 26-529) above
Chain of RSV-F (Strain A2) (respiratory syncytial virus (Strain A2)) (P03420 26-529): as the sequence (P03420 26-529) above

| Molecule | EC50 [1] [ng/mL] | EC50 [2] [ng/mL] | EC50 [3] [ng/mL] | EC50 [4] [ng/mL] |
| --- | --- | --- | --- | --- |
| Palivizumab Synagis (antibody) | 4.88 | 1.88 |  |  |
| fully human anti-RSV monoclonal antibody R66 (antibody, V domains shown, expressed in 293T cells, Protein A purified; heavy chain about 50 kDa, light chain about 22 kDa; also called R66 antibody) VH: EVQLVESGGGLVQPGRSLRLSCTASGFTFADYSMTWVRQAPGKGLEWVGLIKRNAYGGTTEYAASVRGRFTISRDDSRSIAYLQMHSLKSEDTAVYFCLRGYSGYDWEGLDAFEVWGQGTMVTVSS VL: DIQMTQSPSAMSASVGDRVTITCRASQGSSTYLAWFQQKPGKVPKRLIYAVSSLQSGVPSRFSGSGSGTEFTLTISSLQPEDSATYYCLQHNSFPLTFGQGTKVEIK |  |  | 1.46 | 1.79 |
